The values that follow are results of earlier work, collected in publication PMC12520553.

pKd: −log10 of the molar value. Where two headings read alike, the source gives them in different places.

In data set [1] the target is S100B (Homo sapiens) (UniProt P04271). Kind of data set: ITC.
Data set [2] concerns the target RAGE 23-132 (Homo sapiens) (UniProt Q15109).
Data set [3] has as its target RAGE (Homo sapiens) (UniProt Q15109). Kind of data set: SPR. For orientation: In SPR one partner is held on a chip, and binding of the other changes the refractive index at the surface.
Data set [4] has as its target S100B (Homo sapiens) (UniProt P04271). Kind of data set: SPR.
Data set [5] concerns the target S100A5 (Homo sapiens) (UniProt P33763).
Data set [6] addresses Aβ Aβ (Homo sapiens) (UniProt P05067).
In data set [7] the target is Aβ42 Aβ42 (Homo sapiens) (UniProt P05067). Briefly: MST.
The target of data set [8] is S100A6m (Homo sapiens) (UniProt P06703). Kind of data set: ITC. A general note: In ITC the heat of successive injections is recorded.
For data set [9], the target named is S100P (Homo sapiens) (UniProt P25815). Briefly: ITC.
Data set [10] deals with S100A11 (Homo sapiens) (UniProt P31949). Briefly: NMR.
Data set [11] addresses Aβ40 Aβ40 (Homo sapiens) (UniProt P05067). Briefly: given as Ka.
For data set [12], the target named is C1q (Homo sapiens) (UniProt P02745). Kind of data set: SPR.
Data set [13] addresses HMGB1 (Homo sapiens) (UniProt P09429). Briefly: SPR.
The target in data set [14] is Aβ40 Aβ40 (Homo sapiens) (UniProt P05067).
Data set [15] addresses RAGE V domain (Homo sapiens) (UniProt Q15109).
The target of data set [16] is Aβ17-42 Aβ17-42 (Homo sapiens) (UniProt P05067). Briefly: MST.
Data set [17] addresses iso-Aβ42 Aβ42 (Homo sapiens) (UniProt P05067). Briefly: MST.
Data set [18] concerns the target pS8-Aβ42 Aβ42 (Homo sapiens) (UniProt P05067). Briefly: MST.
Data set [19] addresses S100B (dimer) (Homo sapiens) (UniProt P04271). Briefly: SPR.
Data set [20] addresses S100A13 (Homo sapiens) (UniProt Q99584). Kind of data set: ITC.
Data set [21] addresses Aβ42 Aβ42 (Homo sapiens) (UniProt P05067).
The target of data set [22] is Aβ1-40 Aβ1-40 (Homo sapiens) (UniProt P05067).
For data set [23], the target named is Aβ40 Aβ40 (Homo sapiens) (UniProt P05067). The source holds these as a separate data set.
Data set [24] deals with S100A9 (Homo sapiens) (UniProt P06702). Briefly: SPR.
Data set [25] addresses fructose-BSA (Bos taurus) (UniProt P02769). Briefly: SPR.
Data set [26] deals with S100A8 (Homo sapiens) (UniProt P05109). Kind of data set: SPR.
The target in data set [27] is glucose-BSA (Bos taurus) (UniProt P02769). Kind of data set: SPR.
Data set [28] addresses sRAGE ECD (Homo sapiens) (UniProt Q15109). Briefly: MST.
Data set [29] addresses RAGE (Homo sapiens) (UniProt Q15109).

S100B (Homo sapiens), sequence (P04271 2-92): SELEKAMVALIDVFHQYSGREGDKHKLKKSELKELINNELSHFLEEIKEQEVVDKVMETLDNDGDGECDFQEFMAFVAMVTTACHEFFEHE
S100A13 (Homo sapiens), sequence (Q99584 whole entry): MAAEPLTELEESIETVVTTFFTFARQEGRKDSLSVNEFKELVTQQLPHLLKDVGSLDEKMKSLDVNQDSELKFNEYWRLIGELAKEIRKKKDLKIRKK
HMGB1 (Homo sapiens), sequence (P09429 whole entry): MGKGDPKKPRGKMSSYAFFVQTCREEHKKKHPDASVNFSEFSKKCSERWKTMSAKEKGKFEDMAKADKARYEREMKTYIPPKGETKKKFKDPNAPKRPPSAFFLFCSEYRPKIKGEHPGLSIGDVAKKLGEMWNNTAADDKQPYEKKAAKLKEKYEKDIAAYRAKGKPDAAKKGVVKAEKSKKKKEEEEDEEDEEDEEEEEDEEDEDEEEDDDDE
S100A8 (Homo sapiens), sequence (P05109 whole entry): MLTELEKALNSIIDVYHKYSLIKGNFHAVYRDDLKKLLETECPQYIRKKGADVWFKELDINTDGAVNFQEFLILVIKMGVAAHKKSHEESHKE
S100A8, sequence (P05109 whole entry): as above
S100P (Homo sapiens), sequence (P25815 whole entry): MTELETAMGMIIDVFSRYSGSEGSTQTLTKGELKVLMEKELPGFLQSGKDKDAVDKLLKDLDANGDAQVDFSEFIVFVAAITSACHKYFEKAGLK
S100A9 (Homo sapiens), sequence (P06702 whole entry): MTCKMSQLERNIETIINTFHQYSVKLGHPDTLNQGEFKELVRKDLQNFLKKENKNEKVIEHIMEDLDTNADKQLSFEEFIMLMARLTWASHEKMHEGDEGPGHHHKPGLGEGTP
S100A9, sequence (P06702 whole entry): as above
S100A5, sequence (P33763 whole entry): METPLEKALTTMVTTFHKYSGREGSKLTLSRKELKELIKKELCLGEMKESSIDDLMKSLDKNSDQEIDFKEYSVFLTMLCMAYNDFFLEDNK
S100A5 (Homo sapiens), sequence (P33763 whole entry): as above
S100A11 (Homo sapiens), sequence (P31949 2-105): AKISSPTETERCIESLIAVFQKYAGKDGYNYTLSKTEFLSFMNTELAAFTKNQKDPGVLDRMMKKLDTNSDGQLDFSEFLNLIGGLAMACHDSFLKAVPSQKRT
S100B (dimer) (Homo sapiens), sequence (P04271 2-92): as the sequence (P04271 2-92) above
S100B, sequence (P04271 2-92): as above
C1q (Homo sapiens), sequence (P02745 23-245, chain 1 of 3): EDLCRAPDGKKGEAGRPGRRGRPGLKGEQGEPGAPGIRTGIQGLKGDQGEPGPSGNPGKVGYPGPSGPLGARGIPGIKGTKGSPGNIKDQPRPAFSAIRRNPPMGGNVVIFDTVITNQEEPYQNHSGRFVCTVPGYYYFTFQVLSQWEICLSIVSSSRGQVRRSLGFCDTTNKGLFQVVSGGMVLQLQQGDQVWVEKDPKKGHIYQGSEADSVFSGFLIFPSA
C1q (Homo sapiens), sequence (P02746 28-253, chain 2 of 3, further chain): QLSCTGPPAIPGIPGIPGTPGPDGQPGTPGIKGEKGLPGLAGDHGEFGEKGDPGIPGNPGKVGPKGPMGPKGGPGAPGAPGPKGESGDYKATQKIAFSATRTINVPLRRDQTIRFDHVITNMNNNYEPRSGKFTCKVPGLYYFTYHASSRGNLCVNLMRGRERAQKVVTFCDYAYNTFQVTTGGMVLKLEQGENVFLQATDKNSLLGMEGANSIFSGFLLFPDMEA
C1q (Homo sapiens), sequence (P02747 29-245, chain 3 of 3, further chain): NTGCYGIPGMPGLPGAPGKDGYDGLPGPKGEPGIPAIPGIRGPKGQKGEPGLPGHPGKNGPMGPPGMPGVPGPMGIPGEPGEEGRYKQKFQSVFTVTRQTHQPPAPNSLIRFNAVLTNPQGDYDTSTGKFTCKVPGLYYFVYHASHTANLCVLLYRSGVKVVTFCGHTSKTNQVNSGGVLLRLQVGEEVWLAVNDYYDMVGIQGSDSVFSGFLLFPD
glucose-BSA (Bos taurus), sequence (P02769 25-607): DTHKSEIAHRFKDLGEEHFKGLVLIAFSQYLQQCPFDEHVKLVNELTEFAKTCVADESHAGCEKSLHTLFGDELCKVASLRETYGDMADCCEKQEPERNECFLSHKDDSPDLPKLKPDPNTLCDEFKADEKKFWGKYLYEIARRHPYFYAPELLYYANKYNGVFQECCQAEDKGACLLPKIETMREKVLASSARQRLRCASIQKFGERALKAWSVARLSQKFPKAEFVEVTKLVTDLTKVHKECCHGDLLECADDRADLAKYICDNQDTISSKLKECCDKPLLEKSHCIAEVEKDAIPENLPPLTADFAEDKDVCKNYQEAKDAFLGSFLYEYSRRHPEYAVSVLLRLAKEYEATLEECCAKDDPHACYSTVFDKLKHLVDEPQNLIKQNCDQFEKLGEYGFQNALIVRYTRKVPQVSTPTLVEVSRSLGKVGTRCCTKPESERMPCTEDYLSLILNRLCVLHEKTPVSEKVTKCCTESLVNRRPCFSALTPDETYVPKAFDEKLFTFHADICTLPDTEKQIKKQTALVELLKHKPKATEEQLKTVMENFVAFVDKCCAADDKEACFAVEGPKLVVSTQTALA
fructose-BSA (AGE), sequence (P02769 25-607): as above
glucose-BSA (AGE), sequence (P02769 25-607): as above
fructose-BSA (Bos taurus), sequence (P02769 25-607): as above

What is called pKd is −log10 of the Kd, conventionally taken in molar units. For RAGE VC1 (from UniProt Q15109), the pKd in data set [1] is 5.50.

Turning to S100B (from UniProt P04271), the pKd in data set [2] was 6.30.

For the substance S100A9 (from UniProt P06702), the pKd in [3] is 8.49.

In the case of S100A8 (from UniProt P05109), the pKd in data set [3] was 7.15.

RAGE 23-132 (from UniProt Q15109): the pKd in data set [4] was 6.30.

As for RAGE V domain (from UniProt Q15109), the pKd in data set [5] was 5.23; in [6], 7.28; in data set [7] it was 6.00; in [8] it was 5.52; in data set [9], 5.21; in data set [10], 5.58. For the same substance, the pKd in [11] is 6.20; in [12], 5.25; in data set [13], 7.01; in data set [14], 6.22.

Consider S100A5 (from UniProt P33763), for which, in [15], the pKd is 5.23.

Regarding sRAGE ECD (from UniProt Q15109), the pKd in data set [16] is 5.00; in data set [17], 4.64; in data set [18], 5.15; in data set [19], 5.08.

In the case of glucose-BSA (AGE) (from UniProt P02769), the pKd in data set [3] was 4.86.

As to RAGE C2 (from UniProt Q15109), the pKd in [20] was 5.89.

With RAGE (from UniProt Q15109), the pKd is 7.04 in data set [21]; 7.24 in data set [22]; 7.12 in [23]; 8.49 in data set [24]; 4.71 in data set [25]; 7.15 in data set [26]. In addition, in [27], the pKd was 4.86.

Regarding “Amyloid-beta 17-42 Abeta 17-42 (from UniProt P05067)”, the pKd in data set [28] is 5.00.

In the case of “fructose-BSA (AGE) (from UniProt P02769)”, the pKd in [3] is 4.71.

Regarding “Amyloid-beta 1-40 Abeta 1-40 (from UniProt P05067)”, the pKd in data set [29] is 7.24.
